Source: patent publication US20170129954A1 (PROTHENA BIOSCIENCES, published 2017)

Legend:
[1] = target: T1, human MCAM (antigen of the BLI kinetics in Example 7) (human, UniProt P43121 24-559, limits assumed); assay: BLI, ForteBio Octet QK, apparent ka
T1 chain: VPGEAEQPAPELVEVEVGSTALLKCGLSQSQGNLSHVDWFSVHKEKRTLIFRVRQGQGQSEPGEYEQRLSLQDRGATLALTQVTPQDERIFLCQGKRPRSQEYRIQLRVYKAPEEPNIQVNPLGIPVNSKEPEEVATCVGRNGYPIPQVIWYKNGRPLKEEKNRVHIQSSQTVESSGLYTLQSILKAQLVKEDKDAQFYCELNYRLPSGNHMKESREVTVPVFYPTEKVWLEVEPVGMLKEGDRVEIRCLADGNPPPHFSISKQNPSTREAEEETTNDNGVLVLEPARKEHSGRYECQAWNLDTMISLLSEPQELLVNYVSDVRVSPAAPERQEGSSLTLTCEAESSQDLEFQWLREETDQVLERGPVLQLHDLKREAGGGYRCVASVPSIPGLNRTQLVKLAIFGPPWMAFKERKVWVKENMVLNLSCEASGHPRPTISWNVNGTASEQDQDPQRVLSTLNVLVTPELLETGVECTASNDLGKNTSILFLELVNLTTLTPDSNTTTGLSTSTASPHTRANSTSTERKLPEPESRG
Excerpt: (§1) Apparent ka, apparent kd and apparent KD are binding kinetic parameters obtained using ForteBio assay formats.

[2] = target: T2, human MCAM domain 1 (amino acids 19-129) hFc (human, UniProt P43121 19-129); assay: ForteBio BLI, MCAMhFc domains on anti-human IgG Fc biosensors
T2 construct: One of the various MCAMhFc domains captured on anti-human IgG Fc biosensors; also called MCAMhFc domain; not shown: human IgG Fc (hFc)
T2 sequence: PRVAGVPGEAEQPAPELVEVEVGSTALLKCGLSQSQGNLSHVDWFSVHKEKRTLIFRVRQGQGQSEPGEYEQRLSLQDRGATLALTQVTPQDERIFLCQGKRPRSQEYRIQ
Excerpt: (§2) The following protocol was used: ForteBio anti-human IgG Fc biosensors were used to immobilize various MCAMhFc domains including full length MCAMhFc protein on to biosensor surface. […] After loading these samples into a black 96 well plate, the Octet Red was programmed as follows: 60 seconds for baseline #1; 180 seconds for loading various domains; 60 seconds for baseline #2; 180 seconds for association of antibody to domain; and 240 seconds for dissociation of antibody from domain.
(§3) 1. MCAMhFc final concentration @ 5 ug/ml [0329] […] 3. ForteBio anti-human IgG Fc Capture (AHC) biosensors for kinetics experiments, cat #18-5060 [0331] 4. Block 96 well plate from Greiner Bio-one, cat #655209 [0332] 5. ForteBio Octet Red machine [0333] 6. Fresh tissue culture medium, DMEM with 20% FCS, was used as buffer for dilution The results from these analyses are as follows.

[3] = target: T3, combination of human MCAM domains 1 and 2 (amino acids 19-242) hFc (human, UniProt P43121 19-242); assay: as above
T3 construct: One of the various MCAMhFc domains captured on anti-human IgG Fc biosensors; also called combination of domains 1 and 2; MCAMhFc domain; not shown: human IgG Fc (hFc)
T3 sequence: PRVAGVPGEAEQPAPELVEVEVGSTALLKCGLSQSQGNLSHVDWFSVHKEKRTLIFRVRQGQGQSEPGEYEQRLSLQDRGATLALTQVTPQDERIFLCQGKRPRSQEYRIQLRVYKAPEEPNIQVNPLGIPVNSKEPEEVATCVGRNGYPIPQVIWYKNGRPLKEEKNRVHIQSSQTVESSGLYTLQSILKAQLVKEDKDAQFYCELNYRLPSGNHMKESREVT
Excerpt: as §2, §3

[4] = target: T4, human MCAM domain 2 (amino acids 139-242) hFc (human, UniProt P43121 139-242); assay: as above
T4 construct: One of the various MCAMhFc domains captured on anti-human IgG Fc biosensors; also called MCAMhFc domain; not shown: human IgG Fc (hFc)
T4 sequence: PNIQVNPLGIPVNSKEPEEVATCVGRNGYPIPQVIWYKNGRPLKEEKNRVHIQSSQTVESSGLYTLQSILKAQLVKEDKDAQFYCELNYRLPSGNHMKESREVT
Excerpt: as §2, §3

[5] = target: T1, human MCAM (antigen of the BLI kinetics …); assay: BLI, ForteBio Octet QK, apparent kd
Excerpt: as §1

kon [1]: 1.41e+06 M⁻¹ s⁻¹ | binding result [2]: no binding (tested: 5 ug/ml) | binding result [3]: no binding (tested: 5 ug/ml) | binding result [4]: no binding (tested: 5 ug/ml) | koff [5]: 0.000402 s⁻¹
B1: mouse anti-human MCAM monoclonal antibody clone 1749.1.3 (antibody, V domains shown)
VH: DVKLVESGGDLVKPGGSLKLSCAASGFTFSSYIMSWVRQTPEKRLEWVATISSGGSSTYYPDSVKGRFTISRDNAKNTLYLQMSSLKSEDTAMYYCTRDDDYDVKVFAYWGQGTLVTVSA
VL: DIVMSQSPSSLAVSAGEKVTMNCKSSRSLLNSRIRKNYLAWYQQKPGQSPKLLIYWASTRESGVPDRFTGSGSGTDFTLTISSVQAEDLAVYYCKQSYNLLTFGAGTKLELK
notes: Mouse hybridoma monoclonal antibody; also called m1749
